Measured values from US20160136234A1.

Columns and labels:
Experiment in all cases: cell-based or functional assay
Txk (h) (human) = target: T1, Txk (h) (human) (UniProt P42681)
T1 sequence (looked up): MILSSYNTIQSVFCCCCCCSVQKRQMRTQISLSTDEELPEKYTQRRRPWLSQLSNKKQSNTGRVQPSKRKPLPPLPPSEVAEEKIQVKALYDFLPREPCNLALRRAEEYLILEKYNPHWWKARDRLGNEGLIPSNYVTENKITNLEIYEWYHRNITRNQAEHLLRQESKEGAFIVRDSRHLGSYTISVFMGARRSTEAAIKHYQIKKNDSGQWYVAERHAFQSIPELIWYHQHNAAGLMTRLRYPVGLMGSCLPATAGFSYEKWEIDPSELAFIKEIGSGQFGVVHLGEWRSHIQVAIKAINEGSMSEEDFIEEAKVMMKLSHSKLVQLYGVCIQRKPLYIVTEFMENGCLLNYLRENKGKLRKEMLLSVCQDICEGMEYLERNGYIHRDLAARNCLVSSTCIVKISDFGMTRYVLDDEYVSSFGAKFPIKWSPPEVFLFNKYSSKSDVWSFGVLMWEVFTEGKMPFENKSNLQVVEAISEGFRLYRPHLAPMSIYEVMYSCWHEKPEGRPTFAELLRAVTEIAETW

Rse (h) (human) = target: T2, Rse (h) (human) (UniProt Q06418)
T2 sequence (looked up): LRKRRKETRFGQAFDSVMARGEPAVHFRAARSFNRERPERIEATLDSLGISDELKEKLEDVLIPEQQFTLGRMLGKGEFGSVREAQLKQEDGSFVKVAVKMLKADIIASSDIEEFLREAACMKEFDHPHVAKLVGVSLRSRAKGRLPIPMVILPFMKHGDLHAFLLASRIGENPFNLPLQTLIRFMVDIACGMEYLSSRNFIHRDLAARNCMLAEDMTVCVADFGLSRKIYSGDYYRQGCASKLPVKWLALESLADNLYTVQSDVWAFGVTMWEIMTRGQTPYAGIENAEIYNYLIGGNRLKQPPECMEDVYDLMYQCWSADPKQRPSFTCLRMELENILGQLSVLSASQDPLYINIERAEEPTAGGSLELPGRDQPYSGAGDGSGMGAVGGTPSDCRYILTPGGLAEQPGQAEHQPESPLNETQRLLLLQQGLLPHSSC

DAPK2 (h) (human) = DAPK2 (h) (human) (UniProt Q9UIK4)
CaMKIIγ (h) (human) = CaMKIIγ (h) (human) (UniProt Q13555)
CHK1 (h) (human) = target: T3, CHK1 (h) (human) (UniProt O14757)
T3 sequence (looked up): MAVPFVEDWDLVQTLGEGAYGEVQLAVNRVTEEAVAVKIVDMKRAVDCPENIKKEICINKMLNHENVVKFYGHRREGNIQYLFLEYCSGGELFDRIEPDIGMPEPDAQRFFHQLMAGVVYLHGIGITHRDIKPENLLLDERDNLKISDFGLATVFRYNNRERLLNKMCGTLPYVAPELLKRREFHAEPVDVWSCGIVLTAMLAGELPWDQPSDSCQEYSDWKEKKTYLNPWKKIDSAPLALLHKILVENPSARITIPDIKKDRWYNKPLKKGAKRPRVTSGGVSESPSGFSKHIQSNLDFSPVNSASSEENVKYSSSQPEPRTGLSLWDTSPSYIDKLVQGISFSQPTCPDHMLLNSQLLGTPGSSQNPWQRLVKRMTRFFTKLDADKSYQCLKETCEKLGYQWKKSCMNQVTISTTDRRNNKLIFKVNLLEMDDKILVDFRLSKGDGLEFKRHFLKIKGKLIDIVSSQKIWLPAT

TSSK1 (h) (human) = target: T4, TSSK1 (h) (human) (UniProt Q9BXA7)
T4 sequence (looked up): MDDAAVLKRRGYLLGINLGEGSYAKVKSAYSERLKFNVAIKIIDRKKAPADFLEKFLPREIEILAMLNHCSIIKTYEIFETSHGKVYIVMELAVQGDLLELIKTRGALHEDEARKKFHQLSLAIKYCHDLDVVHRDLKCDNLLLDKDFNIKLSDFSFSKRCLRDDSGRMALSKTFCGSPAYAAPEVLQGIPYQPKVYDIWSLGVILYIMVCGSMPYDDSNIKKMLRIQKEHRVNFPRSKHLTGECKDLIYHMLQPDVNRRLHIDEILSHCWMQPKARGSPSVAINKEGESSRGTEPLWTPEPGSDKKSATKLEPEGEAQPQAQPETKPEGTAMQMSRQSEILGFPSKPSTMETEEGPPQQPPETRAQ

BRK (h) (human) = BRK (h) (human) (UniProt Q13882)
cKit(V654A) (h) (human) = cKit(V654A) (h) (human) (UniProt P10721)
Aurora-A (h) (human) = target: T5, Aurora-A (h) (human) (UniProt O14965)
T5 sequence (looked up): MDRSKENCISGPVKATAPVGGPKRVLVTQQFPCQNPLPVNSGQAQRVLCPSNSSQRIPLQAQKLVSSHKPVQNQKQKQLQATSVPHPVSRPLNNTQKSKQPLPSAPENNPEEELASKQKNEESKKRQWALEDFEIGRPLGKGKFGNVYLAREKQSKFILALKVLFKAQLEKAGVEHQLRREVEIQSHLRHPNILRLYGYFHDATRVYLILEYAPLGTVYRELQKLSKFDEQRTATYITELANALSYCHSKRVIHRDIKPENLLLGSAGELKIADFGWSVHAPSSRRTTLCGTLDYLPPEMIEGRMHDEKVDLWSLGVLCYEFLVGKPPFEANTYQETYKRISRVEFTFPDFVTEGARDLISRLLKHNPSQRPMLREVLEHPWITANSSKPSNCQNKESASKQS

Abl(Y253F) (h) (human) = Abl(Y253F) (h) (human) (UniProt P00519)
PKCβII (h) (human) = PKCβII (h) (human) (UniProt P05771)
Met(D1246H) (h) (human) = Met(D1246H) (h) (human) (UniProt P08581)
PKCγ (h) (human) = PKCγ (h) (human) (UniProt P05129)
NEK7 (h) (human) = NEK7 (h) (human) (UniProt Q8TDX7)
CaMKIIβ (h) (human) = CaMKIIβ (h) (human) (UniProt Q13554)
CHK2 (h) (human) = CHK2 (h) (human) (UniProt O96017)
Sequence of CHK2 (h) (human) (O96017 5-543 limits assumed): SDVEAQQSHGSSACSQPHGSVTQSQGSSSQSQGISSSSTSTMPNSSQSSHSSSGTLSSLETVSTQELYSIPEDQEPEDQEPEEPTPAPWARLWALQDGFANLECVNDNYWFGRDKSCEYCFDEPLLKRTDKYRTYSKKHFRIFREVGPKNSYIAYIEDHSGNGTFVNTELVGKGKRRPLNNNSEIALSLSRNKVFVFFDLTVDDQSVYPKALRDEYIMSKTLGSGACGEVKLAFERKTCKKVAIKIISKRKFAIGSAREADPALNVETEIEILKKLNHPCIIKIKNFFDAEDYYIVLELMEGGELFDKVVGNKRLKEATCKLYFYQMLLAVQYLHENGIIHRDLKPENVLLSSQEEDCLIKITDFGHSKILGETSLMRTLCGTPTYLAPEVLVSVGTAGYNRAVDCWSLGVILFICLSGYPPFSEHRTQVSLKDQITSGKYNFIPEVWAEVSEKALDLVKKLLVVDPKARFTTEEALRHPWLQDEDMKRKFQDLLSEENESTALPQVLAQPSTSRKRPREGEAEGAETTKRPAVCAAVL

Sequence of cKit(V654A) (h) (human) (P10721 544-976 V654A): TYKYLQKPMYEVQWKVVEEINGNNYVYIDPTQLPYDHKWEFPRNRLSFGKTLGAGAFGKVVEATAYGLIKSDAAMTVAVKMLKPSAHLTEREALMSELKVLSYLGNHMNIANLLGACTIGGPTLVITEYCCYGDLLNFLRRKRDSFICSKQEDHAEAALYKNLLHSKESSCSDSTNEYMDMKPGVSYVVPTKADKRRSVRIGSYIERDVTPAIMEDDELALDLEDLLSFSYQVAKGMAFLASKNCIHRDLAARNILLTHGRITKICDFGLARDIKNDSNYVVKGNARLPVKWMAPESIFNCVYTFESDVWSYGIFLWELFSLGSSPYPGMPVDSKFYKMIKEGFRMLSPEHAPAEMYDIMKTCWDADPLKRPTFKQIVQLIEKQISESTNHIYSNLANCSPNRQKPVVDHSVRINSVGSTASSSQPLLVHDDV
Sequence of Abl(Y253F) (h) (human) (P00519 27-1130 Y253F limits assumed): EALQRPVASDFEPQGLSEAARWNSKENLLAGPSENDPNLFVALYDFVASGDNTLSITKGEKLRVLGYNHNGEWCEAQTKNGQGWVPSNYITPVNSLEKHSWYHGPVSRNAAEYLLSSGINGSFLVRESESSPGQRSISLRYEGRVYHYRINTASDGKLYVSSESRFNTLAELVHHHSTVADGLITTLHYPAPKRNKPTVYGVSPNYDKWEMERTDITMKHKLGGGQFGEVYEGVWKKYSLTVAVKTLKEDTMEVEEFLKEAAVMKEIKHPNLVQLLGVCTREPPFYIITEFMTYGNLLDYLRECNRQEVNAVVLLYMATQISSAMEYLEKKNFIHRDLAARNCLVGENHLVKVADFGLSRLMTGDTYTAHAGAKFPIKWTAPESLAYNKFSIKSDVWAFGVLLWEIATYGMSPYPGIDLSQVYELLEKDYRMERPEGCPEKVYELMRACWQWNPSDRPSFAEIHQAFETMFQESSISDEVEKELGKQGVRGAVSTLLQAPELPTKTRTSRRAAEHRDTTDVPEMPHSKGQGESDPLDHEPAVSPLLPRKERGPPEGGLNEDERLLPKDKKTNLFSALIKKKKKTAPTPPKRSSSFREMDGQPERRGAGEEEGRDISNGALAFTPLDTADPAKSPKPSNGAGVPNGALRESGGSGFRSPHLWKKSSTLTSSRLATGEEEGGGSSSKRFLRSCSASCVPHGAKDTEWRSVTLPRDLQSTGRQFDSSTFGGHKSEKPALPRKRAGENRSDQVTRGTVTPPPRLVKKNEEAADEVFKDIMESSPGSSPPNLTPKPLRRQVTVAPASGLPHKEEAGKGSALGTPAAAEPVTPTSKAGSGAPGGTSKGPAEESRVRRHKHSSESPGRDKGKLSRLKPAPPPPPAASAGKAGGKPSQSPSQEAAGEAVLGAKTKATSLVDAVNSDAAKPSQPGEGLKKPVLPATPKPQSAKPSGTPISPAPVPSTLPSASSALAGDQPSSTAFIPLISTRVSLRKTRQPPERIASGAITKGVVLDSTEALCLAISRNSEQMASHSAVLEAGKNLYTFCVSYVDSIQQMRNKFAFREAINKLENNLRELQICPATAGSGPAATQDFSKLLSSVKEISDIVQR
Sequence of CaMKIIγ (h) (human) (Q13555 whole entry): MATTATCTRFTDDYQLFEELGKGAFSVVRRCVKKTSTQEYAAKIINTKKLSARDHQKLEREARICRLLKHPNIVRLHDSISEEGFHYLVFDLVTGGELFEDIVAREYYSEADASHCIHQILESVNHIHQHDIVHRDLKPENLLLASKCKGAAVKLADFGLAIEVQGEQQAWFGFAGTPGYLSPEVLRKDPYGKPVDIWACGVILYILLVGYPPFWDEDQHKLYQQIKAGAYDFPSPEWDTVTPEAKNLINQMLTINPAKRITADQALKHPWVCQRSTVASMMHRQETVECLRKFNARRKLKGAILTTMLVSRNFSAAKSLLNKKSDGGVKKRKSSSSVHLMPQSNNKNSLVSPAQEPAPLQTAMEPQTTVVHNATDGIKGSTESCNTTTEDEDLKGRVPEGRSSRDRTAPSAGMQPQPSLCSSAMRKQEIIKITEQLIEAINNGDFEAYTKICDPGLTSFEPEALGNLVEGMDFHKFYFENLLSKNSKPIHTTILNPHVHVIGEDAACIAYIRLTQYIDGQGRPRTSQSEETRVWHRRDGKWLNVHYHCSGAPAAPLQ
Sequence of CaMKIIβ (h) (human) (Q13554 whole entry): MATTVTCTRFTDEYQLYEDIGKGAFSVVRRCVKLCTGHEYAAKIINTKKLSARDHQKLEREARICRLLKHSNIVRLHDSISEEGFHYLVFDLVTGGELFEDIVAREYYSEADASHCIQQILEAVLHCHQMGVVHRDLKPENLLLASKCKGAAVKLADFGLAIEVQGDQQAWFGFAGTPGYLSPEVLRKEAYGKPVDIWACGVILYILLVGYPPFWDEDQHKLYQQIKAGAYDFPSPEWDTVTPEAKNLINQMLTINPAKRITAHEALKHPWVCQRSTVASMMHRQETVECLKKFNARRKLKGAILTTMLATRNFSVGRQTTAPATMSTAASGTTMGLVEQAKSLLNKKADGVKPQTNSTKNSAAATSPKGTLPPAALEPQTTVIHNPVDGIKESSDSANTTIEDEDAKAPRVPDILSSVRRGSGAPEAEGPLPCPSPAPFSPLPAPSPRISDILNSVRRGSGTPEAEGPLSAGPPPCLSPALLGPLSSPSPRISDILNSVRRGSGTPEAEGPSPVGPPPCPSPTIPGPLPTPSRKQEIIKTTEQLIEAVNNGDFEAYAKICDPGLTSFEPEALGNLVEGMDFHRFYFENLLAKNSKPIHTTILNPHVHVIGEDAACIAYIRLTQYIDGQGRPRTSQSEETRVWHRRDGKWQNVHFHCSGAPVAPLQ

% activity at 100 µM (Txk (h) (human)): 48%
% activity at 100 µM (Rse (h) (human)): 88%
% activity at 100 µM (DAPK2 (h) (human)): 32%
% activity at 100 µM (CaMKIIγ (h) (human)): 5%
% activity at 100 µM (CHK1 (h) (human)): 91%
% activity at 100 µM (TSSK1 (h) (human)): 79%
% activity at 100 µM (BRK (h) (human)): 35%
% activity at 100 µM (cKit(V654A) (h) (human)): 134%
% activity at 100 µM (Aurora-A (h) (human)): 92%
% activity at 100 µM (Abl(Y253F) (h) (human)): 86%
% activity at 100 µM (PKCβII (h) (human)): 82%
% activity at 100 µM (Met(D1246H) (h) (human)): 125%
% activity at 100 µM (PKCγ (h) (human)): 89%
% activity at 100 µM (NEK7 (h) (human)): 84%
% activity at 100 µM (CaMKIIβ (h) (human)): 2%
% activity at 100 µM (CHK2 (h) (human)): 66%
Substance: MMI-0300 (peptide)
